Patent US20050239710

Target: T1, 19-mer (SEQ ID NO:11) cleavage domain peptide
T1 chain: PRCGNPDVANYNFFPRKPK

B1: Proenzyme pro-MMP-9 (protein)
chain: APRQRQSTLVLFPGDLRTNLTDRQLAEEYLYRYGYTRVAEMRGESKSLGPALLLLQKQLSLPETGELDSATLKAMRTPRCGVPDLGRFQTFEGDLKWHHHNITYWIQNYSEDLPRAVIDDAFARAFALWSAVTPLTFTRVYSRDADIVIQFGVAEHGDGYPFDGKDGLLAHAFPPGPGIQGDAHFDDDELWSLGKGVVVPTRFGNADGAACHFPFIFEGRSYSACTTDGRSDGLPWCSTTANYDTDDRFGFCPSERLYTQDGNADGKPCQFPFIFQGQSYSACTTDGRSDGYRWCATTANYDRDKLFGFCPTRADSTVMGGNSAGELCVFPFTFLGKEYSTCTSEGRGDGRLWCATTSNFDSDKKWGFCPDQGYSLFLVAAHEFGHALGLDHSSVPEALMYPMYRFTEGPPLHKDDVNGIRHLYGPRPEPEPRPPTTTTPQPTAPPTVCPTGPPTVHPSERPTAGPTGPPSAGPTGPPTAGPSTATTVPLSPVDDACNVNIFDAIAEIGNQLYLFKDGKYWRFSEGRGSRPQGPFLIADKWPALPRKLDSVFEERLSKKLFFFSGRQVWVYTGASVLGPRRLDKLGLGADVAQVTGALRSGRGKMLLFSGRRLWRFDVKAQMVDPRSASEVDRMFPGVPLDTHDVFQYREKAYFCQDRFYWRVSSRSELNQVDQVGYVTYDILQCPED
conversion of pro-MMP-9 into prodomain and active enzyme by stromilysin (HPLC splicing assay): Splicing can be inhibited in a dose dependent manner with micromolar 19-mer (SEQ ID NO:11) peptide.
